Laboratory results as given in patent US7067486.

Molecular target: PKCβII of mouse brain (UniProt P68404)
Sequence (P68404 other isoform, or with tags, fused parts or gaps): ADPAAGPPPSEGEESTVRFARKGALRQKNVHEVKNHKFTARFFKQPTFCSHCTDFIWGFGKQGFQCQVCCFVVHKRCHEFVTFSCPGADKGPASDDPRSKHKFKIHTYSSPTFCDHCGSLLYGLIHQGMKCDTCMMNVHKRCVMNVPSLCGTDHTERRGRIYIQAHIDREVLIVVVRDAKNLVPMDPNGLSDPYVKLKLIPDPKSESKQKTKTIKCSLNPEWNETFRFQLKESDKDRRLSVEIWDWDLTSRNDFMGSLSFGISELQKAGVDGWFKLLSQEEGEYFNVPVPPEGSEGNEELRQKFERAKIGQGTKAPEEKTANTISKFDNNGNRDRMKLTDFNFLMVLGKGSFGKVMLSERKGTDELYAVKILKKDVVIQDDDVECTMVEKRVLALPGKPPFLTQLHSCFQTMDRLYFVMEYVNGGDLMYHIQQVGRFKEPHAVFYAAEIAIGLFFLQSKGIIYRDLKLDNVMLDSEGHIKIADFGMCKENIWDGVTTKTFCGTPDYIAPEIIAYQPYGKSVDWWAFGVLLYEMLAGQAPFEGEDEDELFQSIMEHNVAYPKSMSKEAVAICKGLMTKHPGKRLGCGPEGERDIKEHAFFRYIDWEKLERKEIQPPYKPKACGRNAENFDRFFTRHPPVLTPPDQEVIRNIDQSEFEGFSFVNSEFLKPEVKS

human "readthrough" acetylcholinesterase variant AChE-R, recombinant full protein
PKC activity in brain homogenates (PKC assay kit, Upstate Biotechnology): Note the elevation of PKC activity in the different brain regions in the AChE-R transgenics as compered to FVB/N controls
